Data from the supplement of paper PMC7877785.
± gives the uncertainty stated by the source.

Assay: self-splicing fitness, log relative to wild type (ln ratio); higher = more splicing; Tetrahymena group I intron in knt gene, E. coli kanamycin selection, DiMSum; sequences stand for … in CUCUCU…GGAGGGAAAAGUUAUCAGGCAUGCACCUGGUAGCUAGUCUUUAAACCAAUAGAUUGCAUCGGUUUAAAAGGCAAGACCGUCAAAUUGCGGGAAAGGGGUCAACAGCCGUUCAGUACCAAGUCUCAGGGGAAACUUUGAGAUGGCCUUGCAAAGGGUAUGGUAAUAAGCUGACGGACAUGGUCCUAACCACGCAGCCAAGUCCUAAGUCAACAGAUCUUCUGUUGAUAUGGAUGCAGUUCACAGACUAAAUGUCGGUCGGGGAAGAUGUAUUCUUCUCAUAAGAUAUAGUCGGACCUCUCCUUAAUGGGAGCUAGCGGAUGAAGUGAUGCAACACUGGAGCCGCUGGGAACUAAUUUGUAUGCGAAAGUAUAUUGAUUAGUUUUGGAGUACUCGUGGUCG
How it was run: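 Six replicate transformations of E. coli BL21(DE3) with a pET-22b(+) library were grown overnight at 37°C or 30°C. The library randomised all eight P1ex-region intron nucleotides, the intron lying in the knt kanamycin-resistance gene, and plates were LB agar with or without 25 μg/mL kanamycin plus 100 μg/mL carbenicillin, 50 μM IPTG and 0.2% rhamnose. Pooled colonies were amplicon-sequenced on an Illumina HiSeq 2500, and fitness is the DiMSum error-weighted combination of wild-type-normalised replicate fold changes, kanamycin versus none.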

Sequence	self-splicing fitness (ln) (30 °C)	self-splicing fitness (ln) (37 °C)
UGCGAGCAAUAUUACGUCGU	-3.64 ± 0.25	-3.4 ± 0.37
UGCGAGCAAUAUUACGUGUC	-4.36 ± 0.33	-2.01 ± 0.26
UGCGAGCAAUAUUACGUUCG		-1.25 ± 0.34
UGCUAGCAAUAUUACGAAAU	-3.79 ± 0.4	-1.67 ± 0.36
UGCUAGCAAUAUUACGAAGG	-2.13 ± 0.16	-0.838 ± 0.34
UGCUAGCAAUAUUACGAGAU	-3.93 ± 0.31	-2.41 ± 0.3
UGCUAGCAAUAUUACGAGCA		-2.39 ± 0.39
UGCUAGCAAUAUUACGAGUA	-1.34 ± 0.072	-0.447 ± 0.076
UGCUAGCAAUAUUACGAUCG	0.18 ± 0.12	0.439 ± 0.23
UGCUAGCAAUAUUACGAUGG	-1.52 ± 0.067	-0.47 ± 0.088
UGCUAGCAAUAUUACGCAAC	-3.07 ± 0.28	-1.98 ± 0.2
UGCUAGCAAUAUUACGCACC	-1.91 ± 0.34	-0.242 ± 0.37
UGCUAGCAAUAUUACGCCAU	-3.15 ± 0.28	-2.65 ± 0.35
UGCUAGCAAUAUUACGCUUC	-1.65 ± 0.17	-0.347 ± 0.28
UGCUAGCAAUAUUACGGAAU	-3.98 ± 0.39	-2.97 ± 0.29
UGCUAGCAAUAUUACGGCGA	-0.369 ± 0.22	-0.302 ± 0.23
UGCUAGCAAUAUUACGGCGG	-1.15 ± 0.16	-0.887 ± 0.23
UGCUAGCAAUAUUACGGGAA	-1.83 ± 0.15	-0.95 ± 0.16
UGCUAGCAAUAUUACGGGGC	-3.59 ± 0.29	-2.69 ± 0.25
UGCUAGCAAUAUUACGGGUG	-1.79 ± 0.098	-1.3 ± 0.11
UGCUAGCAAUAUUACGGUUA	-0.0068 ± 0.062	-0.481 ± 0.068
UGCUAGCAAUAUUACGUCGA	-1.18 ± 0.13	-1.14 ± 0.18

Sequence	self-splicing fitness (ln) (30 °C)	self-splicing fitness (ln) (37 °C)
UGCUAGCAAUAUUACGUGAA	-2.87 ± 0.14	-0.167 ± 0.1
UGCUAGCAAUAUUACGUUGA	-2.84 ± 0.18	-2.43 ± 0.24
UGCUAGCAAUAUUACGUUUA	-3.11 ± 0.19	-1.27 ± 0.12
UGGAAGCAAUAUUACGAAGC	-3.64 ± 0.35	-2.35 ± 0.36
UGGAAGCAAUAUUACGAGAG	-3.79 ± 0.47	-3.3 ± 0.33
UGGAAGCAAUAUUACGAGCA	-0.526 ± 0.082	0.193 ± 0.1
UGGAAGCAAUAUUACGAGUC	-2.78 ± 0.29	-3.37 ± 0.33
UGGAAGCAAUAUUACGAUUA	-1.1 ± 0.11	0.012 ± 0.12
UGGAAGCAAUAUUACGCAAG		-1.83 ± 0.37
UGGAAGCAAUAUUACGCAAU	-1.81 ± 0.24	-0.664 ± 0.24
UGGAAGCAAUAUUACGCAGA	-2.85 ± 0.21	-0.966 ± 0.14
UGGAAGCAAUAUUACGGACU	-0.345 ± 0.11	0.284 ± 0.12
UGGAAGCAAUAUUACGGCCA	-0.874 ± 0.21	-0.244 ± 0.2
UGGAAGCAAUAUUACGGGAC	-2.63 ± 0.21	-3.26 ± 0.32
UGGAAGCAAUAUUACGGGCC		-1.27 ± 0.34
UGGAAGCAAUAUUACGUAUC	-3.27 ± 0.27	-2.28 ± 0.27
UGGAAGCAAUAUUACGUAUU	-3.06 ± 0.23	-3.09 ± 0.33
UGGAAGCAAUAUUACGUCGC	-3.16 ± 0.45	-2.39 ± 0.35
UGGAAGCAAUAUUACGUGAU	-2.32 ± 0.2	-1.67 ± 0.22
UGGAAGCAAUAUUACGUGCC	-2.57 ± 0.27	-0.372 ± 0.34
UGGAAGCAAUAUUACGUUGU	-3.64 ± 0.37	-2.88 ± 0.3
